PMC2063517, “Leptospira interrogans Endostatin-Like Outer Membrane Proteins Bind Host Fibronectin, Laminin and Regulators of Complement” (PLoS ONE, 2007)

Columns and labels:
murine laminin (murine) [1] = assay: ELISA; 1 µg murine laminin immobilised in microtiter wells, soluble LenA or LenB added in PBS-based binding buffer, detected by anti-polyhistidine; Kd = concentration of Len protein giving half-maximal binding; in some experiments additional NaCl or porcine heparin in the buffer (heparin also preincubated with laminin)
murine laminin (murine) [2] = assay: ELISA; data not shown: laminin immobilised, 1 µM LenB with 1 µM or 4 µM heparin in the binding buffer
[3] = target: 30-kDa amino-terminal domain of fibronectin (human); assay: ELISA; human plasma fibronectin or its proteolytic fragments (70 kDa, 30 kDa NTD, 45 kDa GBD) immobilised in wells, soluble LenA or LenB added, detected by anti-polyhistidine; Kd = concentration of Len protein giving half-maximal binding
[4] = target: human plasma fibronectin (intact) (human); assay: as above; conditions: both partners purified

Molecule: recombinant LenA (leptospiral endostatin-like protein A), L. interrogans serovar Lai (from UniProt Q8F863 1-240) (natural protein)
- binding of 1 µM LenA with 1 µM heparin, percent of the no-heparin control (murine laminin (murine) [1]): 26%
- percent reduction of binding at 200 mM NaCl against 150 mM NaCl (murine laminin (murine) [1]): 49%
- percent reduction of binding at 500 mM NaCl against 150 mM NaCl (murine laminin (murine) [1]): 60%

Molecule: recombinant LenB, L. interrogans serovar Bratislava (from UniProt A8SKK5 1-236) (natural protein)
- Kd (murine laminin (murine) [1]): 118 nM
- binding of 0.25 µM LenB with 50 µM heparin (laminin preincubated with 50 µM heparin), percent of the no-heparin control (murine laminin (murine) [1]): 25%
- percent inhibition of binding at 200 mM NaCl against 150 mM NaCl (murine laminin (murine) [1]): 40%
- percent inhibition of binding at 500 mM NaCl against 150 mM NaCl (murine laminin (murine) [1]): 79%
- binding of 1 µM LenB with 1 µM heparin, percent of the no-heparin control (murine laminin (murine) [2]): 75%
- binding of 1 µM LenB with 4 µM heparin, percent of the no-heparin control (murine laminin (murine) [2]): 55%
- Kd [3]: 69.5 nM

B1: recombinant LenB, L. interrogans serovar Bratislava (natural protein)
chain: MFKNIFLIFLTGSVVCILWSCGDKKEEDNSDLLLFLLNSLGSSNSAASTVVTSCKDASFCRTFVATNNGAGYDGNLGGISGADAKCAAAKSSNLTGTYKALLAAMGTREAVFVGDGSTRLVDWVLYPNKQYRRSDGTTTTFTTNANSVVTANLQNSVDVGAEKFYWIGVGNQPATFDWEVSLNCNDWNSNNAVNFAIDGTTSSNEVFAGDGATPGGAFGSHNTGCNIRLNLLCVEQ
notes: Made with the vector pET200 (Invitrogen); source: E. coli, inclusion bodies, purified in 8M urea (MagneHis nickel beads), dialyzed against PBS; dissolved into PBS after 2-3 days at 4°C
- Kd [4]: 106 nM
